Test results reported in patent US20210355166A1, “[…] METHODS OF USE THEREOF” (priority 2018, published 2021).

Experiments:
[1] = target: human κ-opioid receptor (hKOPr), human recombinant KOPr expressed in CHO cells (human) (UniProt P41145); assay: competition with [3H]U69593 (2 nM), human recombinant KOPr expressed in CHO cells
[2] = target: human δ-opioid receptor (hDOPr), human recombinant DOPr expressed in CHO cells (human) (UniProt P41143); assay: competition with [3H]DADLE (0.5 nM), human recombinant DOPr expressed in CHO cells

Substance: bilorphin (H-[Dmt]-vVf-NH2; 2,6-dimethyl-L-tyrosine-D-Val-L-Val-D-Phe-NH2) (peptide)
- Ki [1]: 770 nM
- Ki [2]: 190 nM
